For orientation: Kd means the constant that tells how readily two partners part at equilibrium. A low value points to tighter binding.

Results on three molecules are retold here after patent US20240182536A1 (MURAL ONCOLOGY, published 2024).

The target of assay [1] is T1, WT mouse IL-18 on monoFc scaffold (mouse; human, UniProt P70380 36-192).
T1 construct: mature
Put plainly: Octet BLI, monoFc scaffold. As to the method: Octet 96red instrument was used to determine affinities of IL18 proteins to BP or receptors. 5-10 ug/ml analyte proteins were used for loading on Sartorius tips (AHC or SA). […] 120-180 s loading, 200 s association and 800 s dissociation were used for kinetics. 3-7 data points were used to calculate affinities.
Several mouse variants were next tested for binding affinity to mouse IL-18R alpha and mouse IL-18BP.

Assay [2] concerns the target T2, IL-18 receptor (IL-18Rα and IL-18Rβ) (UniProt Q13478 19-541; O95256 20-599, limits assumed).
T2 sequence (looked up) 1: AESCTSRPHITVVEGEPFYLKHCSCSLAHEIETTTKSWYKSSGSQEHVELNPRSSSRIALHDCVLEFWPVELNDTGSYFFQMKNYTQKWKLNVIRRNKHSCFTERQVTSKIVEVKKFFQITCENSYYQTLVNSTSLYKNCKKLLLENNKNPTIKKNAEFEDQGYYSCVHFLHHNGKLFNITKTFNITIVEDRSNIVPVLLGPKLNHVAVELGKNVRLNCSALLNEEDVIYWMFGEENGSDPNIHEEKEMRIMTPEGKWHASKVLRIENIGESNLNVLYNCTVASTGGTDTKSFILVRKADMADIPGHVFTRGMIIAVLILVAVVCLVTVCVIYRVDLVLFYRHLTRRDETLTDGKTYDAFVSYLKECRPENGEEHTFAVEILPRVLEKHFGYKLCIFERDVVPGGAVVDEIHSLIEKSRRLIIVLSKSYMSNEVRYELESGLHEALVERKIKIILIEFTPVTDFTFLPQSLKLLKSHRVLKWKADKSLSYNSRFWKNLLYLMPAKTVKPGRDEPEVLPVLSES
T2 sequence (looked up) 2: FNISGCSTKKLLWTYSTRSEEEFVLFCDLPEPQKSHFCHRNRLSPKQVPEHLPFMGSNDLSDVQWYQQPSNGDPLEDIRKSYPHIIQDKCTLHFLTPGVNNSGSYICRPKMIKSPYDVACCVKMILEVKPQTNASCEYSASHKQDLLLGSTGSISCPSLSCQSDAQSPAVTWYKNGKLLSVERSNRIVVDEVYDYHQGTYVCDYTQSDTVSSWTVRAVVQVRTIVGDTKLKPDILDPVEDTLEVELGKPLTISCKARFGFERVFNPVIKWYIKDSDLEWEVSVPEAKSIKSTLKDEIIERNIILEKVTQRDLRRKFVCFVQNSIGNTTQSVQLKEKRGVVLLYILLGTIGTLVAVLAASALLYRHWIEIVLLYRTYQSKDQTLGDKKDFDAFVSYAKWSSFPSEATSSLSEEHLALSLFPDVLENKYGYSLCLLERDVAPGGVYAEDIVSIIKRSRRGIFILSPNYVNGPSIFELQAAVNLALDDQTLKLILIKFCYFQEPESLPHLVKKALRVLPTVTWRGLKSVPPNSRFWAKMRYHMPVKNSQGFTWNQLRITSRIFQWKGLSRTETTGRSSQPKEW
Put plainly: cell-based or functional assay.

The target in assay [3] is T3, interleukin 18 binding protein (IL-18BP) (UniProt O95998 31-194).
T3 sequence (looked up): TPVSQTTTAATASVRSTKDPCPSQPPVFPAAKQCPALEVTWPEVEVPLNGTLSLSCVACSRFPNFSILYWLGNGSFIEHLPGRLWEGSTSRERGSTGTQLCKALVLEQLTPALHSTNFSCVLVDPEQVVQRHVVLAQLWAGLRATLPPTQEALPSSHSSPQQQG
Put plainly: cell-based or functional assay.

T1 sequence (P70380 other isoform, or with tags, fused parts or gaps): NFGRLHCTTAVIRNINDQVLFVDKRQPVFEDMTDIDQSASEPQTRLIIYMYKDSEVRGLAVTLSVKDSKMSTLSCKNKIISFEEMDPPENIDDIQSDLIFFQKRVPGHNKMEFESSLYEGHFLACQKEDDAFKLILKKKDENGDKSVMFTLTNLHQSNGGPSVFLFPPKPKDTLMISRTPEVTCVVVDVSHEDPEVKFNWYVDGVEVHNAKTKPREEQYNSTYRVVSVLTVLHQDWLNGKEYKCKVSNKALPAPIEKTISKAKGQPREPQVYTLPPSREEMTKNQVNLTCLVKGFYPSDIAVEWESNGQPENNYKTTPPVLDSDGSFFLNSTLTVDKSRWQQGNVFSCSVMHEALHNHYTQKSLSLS

B1: mouse IL-18 binding protein (other, UniProt Q9Z0M9 29-193, looked up)
chain: TSAPQTTATVLTGSSKDPCSSWSPAVPTKQYPALDVIWPEKEVPLNGTLTLSCTACSRFPYFSILYWLGNGSFIEHLPGRLKEGHTSREHRNTSTWLHRALVLEELSPTLRSTNFSCLFVDPGQVAQYHIILAQLWDGLKTAPSPSQETLSSHSPVSRSAGPGVA
notes: also called Mouse IL18BP; Mouse IL-18BP
B1: the Kd in assay [1] worked out at 2.24 nM.

B2: mouse IL-18 receptor alpha (receptor, UniProt Q61098 20-326, looked up)
chain: KSCIHRSQIHVVEGEPFYLKPCGISAPVHRNETATMRWFKGSASHEYRELNNRSSPRVTFHDHTLEFWPVEMEDEGTYISQVGNDRRNWTLNVTKRNKHSCFSDKLVTSRDVEVNKSLHITCKNPNYEELIQDTWLYKNCKEISKTPRILKDAEFGDEGYYSCVFSVHHNGTRYNITKTVNITVIEGRSKVTPAILGPKCEKVGVELGKDVELNCSASLNKDDLFYWSIRKEDSSDPNVQEDRKETTTWISEGKLHASKILRFQKITENYLNVLYNCTVANEEAIDTKSFVLVRKEIPDIPGHVFTG
notes: also called Mouse IL18Ra; mouse IL-18R alpha
The molecule B2 showed a Kd in assay [1] of 13.3 nM.

B3: Comparator 1 (ligand)
chain: YFGKLESKLSVIRNLNDQVLFIDQGNRPLFEDMTDSDCRDNAPRTIFIISKYSDSLARGLAVTISVKCEKISTLSCENKIISFKEMNPPDNIKDTKSDIIFFQRDVPGHSRKMQFESSSYEGYFLACEKERDLFKLILKKEDELGDRSIMFTVQNED
Turning to B3, the “EC50 (pM), PBMC IFN gamma assay” value in assay [2] stood at 4.86 pM. Also, the “EC50 (pM), PBMC IFN gamma assay, + 300 nM BP” value in assay [3] came to 8.78 pM.
